Measurements reported in IntAct's records for PubMed 18772386.

B1: Mpv17-like protein (Mus musculus), Q99MS3-1 (parent)
chain: MASWWRAFPQAARRYPWPTNVLLYAGLFSAGDALQQRLRGGPADWRQTRRVATLAVTFHGNFNYVWLRLLERALPGRAPRTVLAKVLCDQTVGGPIALSAFYVGMSVLQGKDDIFLDLKQKFWNTYKSGLMYWPFVQLTNFSLVPVHWRTAYTGLCAFLWATFLCFSQQSGDGTLQSIFIFLRRKEASDKSPEK
partner: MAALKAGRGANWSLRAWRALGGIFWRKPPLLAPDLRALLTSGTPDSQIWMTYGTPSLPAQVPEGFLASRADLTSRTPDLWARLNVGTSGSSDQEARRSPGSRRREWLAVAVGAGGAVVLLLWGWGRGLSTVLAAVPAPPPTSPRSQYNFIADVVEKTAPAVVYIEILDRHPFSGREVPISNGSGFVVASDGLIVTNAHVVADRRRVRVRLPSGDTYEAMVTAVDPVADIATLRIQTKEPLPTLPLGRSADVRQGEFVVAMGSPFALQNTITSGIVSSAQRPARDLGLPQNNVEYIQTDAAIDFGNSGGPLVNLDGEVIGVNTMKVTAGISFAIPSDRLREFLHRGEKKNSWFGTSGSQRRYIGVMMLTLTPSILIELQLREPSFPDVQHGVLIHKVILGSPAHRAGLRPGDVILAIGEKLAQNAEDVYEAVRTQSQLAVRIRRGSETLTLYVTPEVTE

Variants of: B1
Details: with htra2_mouse Htra2, Q9JIY5
For D112A;I114A, the “effect of a mutation on the interaction” value was “decreasing interaction”.
